Experimental data taken from patent US6730828B1, “Isolated nucleic acids encoding a wheat glutathione transferase, plants transformed therewith and methods of use thereof” (Aventis Agriculture Limited, priority 1997, dated 2004).

Columns and labels:
GST activity toward CDNB = assay type: biochemical
Description: (§1) The purified isoenzymes were assayed for GST activity toward herbicides using the HPLC-based assays described by Edwards R. and Cole D. J. (Pesticide Biochemistry and Physiology Vol. 54, pp96-104 (1996)) and the results are presented in Table 2. […] These isoenzymes had additional activities as glutathione peroxidases able to reduce linoleic acid hydroperoxide, a major reaction product formed during membrane peroxidation in plants (Williamson and Beverly. J. Cereal Sci. 8, 1988, 155-163).
To confirm that TaGST1 encoded a GST, it was expressed as a fusion protein with beta-galactosidase using the pBluescript plasmid in E. coli strain SOLR. TaGST1 clones were inoculated into LB liquid medium and were grown overnight at 37/C on all orbital shaker in the presence of IPTG. Bacteria were then pelleted by centrifugation, lysed by sonication and assayed for GST activity toward CDNB and analysed by SDS-PAGE and Western blotting using the anti-TaGSTI-I serum. With all six TaGST1 clones, GST activity toward CDNB could be determined in the crude extracts in the range 30-50 nkat/mg crude lysate.
(§2) To assay the recombinant fusion proteins for GST activity, the E. coli were grown in the presence of IPTG and then pelleted by centrifugation. The bacteria were then lysed by sonication and the protein precipitated using 80% ammonium sulphate. After resuspension and desalting, GSTs were purified by affinity chromatography. The WIC 3 fusion protein was purified using sulphobromophthalein-S-glutathione affinity chromatography (Mozer et al. Biochem. 22, 1983, 1068-1072) while the other WIC fusion proteins were purified using glutathione-agarose (Mannervik and Guthenberg. Methods Enzymol. 77 1981, 231-235).The purified enzymes were then assayed for GST activities toward herbicides (Table 3) and GST activities toward non-herbicide substrates and glutathione peroxidase activities toward organic hydroperoxides (Table 4).
A polyclonal antiserum was raised in a rabbit to a mixture of TaGST1-2 and TaGST1-3. When tested against crude extracts from safener-treated wheat shoots the antiserum recognised both the 25 kDa TaGST1 subunit and the 26 kDa safener-inducible TaGST2 and TaGST3 subunits. The antiserum was then used in conjunction with the antiserum raised to TaGST1-1 to immuno screen the cDNA library prepared from fenchlorazole ethyl treated wheat shoots as described in example 1. Duplicate lifts were taken from the plated out library and the first blot screened with the antiserum raised against TaGST1-2 and TaGST1-3. The second blot was screened with the antiserum raised to TaGST1-1. Five plaques were identified from the first blot which were absent from the second blot corresponding to cDNAs encoding TaGST2 or TaGST3 like polypeptides and theses clones were purified and the respective plasmids sequenced. […] The other three clones ICC. ICP and ICV had identical DNA sequences (SEQ ID No. 17) and predicted amino acid sequence (SEQ ID No. 18). GST ICJ was sub-cloned into the pET 11a vector after using PCR to introduce a Nde 1 restriction site into the translation start site, using the primer 5′ AGGTAGTTACATATGGCCGGAGGA 3′ (SEQ ID No. 19) in the amplification. following sub-cloning, the sequence of GST ICJ was re-checked to ensure no PCR induced errors had been introduced. The recombinant GST ICJ was then expressed in E. coli and purified by S-hexylglutathione affinity chromatography. The purified GST ICJ was assayed for activities as a GST (Table 3) and as a glutathione peroxidase (Table 4). […] GST ICV was finally expressed as the respective beta-galactosidase fusion protein using the Bluescript plasmid and assayed for GST activity (Table 3 ) and glutathione peroxidase activity (Table 4) in crude bacterial lysates. […]

[1] = GST activity toward herbicide fluorodifen (HPLC-based assay); assay type: biochemical
Description: as §1, §2
(§3) A polyclonal antiserum was raised in a rabbit to a mixture of TaGST1-2 and TaGST1-3. When tested against crude extracts from safener-treated wheat shoots the antiserum recognised both the 25 kDa TaGST1 subunit and the 26 kDa safener-inducible TaGST2 and TaGST3 subunits. The antiserum was then used in conjunction with the antiserum raised to TaGST1-1 to immuno screen the cDNA library prepared from fenchlorazole ethyl treated wheat shoots as described in example 1. Duplicate lifts were taken from the plated out library and the first blot screened with the antiserum raised against TaGST1-2 and TaGST1-3. The second blot was screened with the antiserum raised to TaGST1-1. Five plaques were identified from the first blot which were absent from the second blot corresponding to cDNAs encoding TaGST2 or TaGST3 like polypeptides and theses clones were purified and the respective plasmids sequenced. […] The other three clones ICC. ICP and ICV had identical DNA sequences (SEQ ID No. 17) and predicted amino acid sequence (SEQ ID No. 18). GST ICJ was sub-cloned into the pET 11a vector after using PCR to introduce a Nde 1 restriction site into the translation start site, using the primer 5′ AGGTAGTTACATATGGCCGGAGGA 3′ (SEQ ID No. 19) in the amplification. following sub-cloning, the sequence of GST ICJ was re-checked to ensure no PCR induced errors had been introduced. The recombinant GST ICJ was then expressed in E. coli and purified by S-hexylglutathione affinity chromatography. The purified GST ICJ was assayed for activities as a GST (Table 3) and as a glutathione peroxidase (Table 4). […] GST ICV was finally expressed as the respective beta-galactosidase fusion protein using the Bluescript plasmid and assayed for GST activity (Table 3 ) and glutathione peroxidase activity (Table 4) in crude bacterial lysates. The specific activity of GST ICV toward these substrates was then calculated by I) subtracting the low levels of GST and GPOX activity present due the endogenous activities in the E. coli and ii) determining the proportion of protein in the lysate present as recombinant GST ICV from SDS-PAGE analysis, by densitometry analysis of polypeptides stained with Coomassie blue.

[2] = GST activity toward herbicide fenoxaprop-ethyl (HPLC-based assay); assay type: biochemical
Description: as §1, §2, §3

[3] = GST activity toward herbicide metolachlor (HPLC-based assay); assay type: biochemical
Description: as §1, §2, §3

[4] = Glutathione peroxidase activity toward cumene hydroperoxide; assay type: biochemical
Description: as §2, §3

wheat shoots = assay: Enhancement of GST isoenzyme expression in wheat shoots by safener fenchlorazole-ethyl; assay type: in vivo, Triticum aestivum L. var. Hunter
Description: Wheat seeds (Triticum aestivum L. var. Hunter) were imbibed in a 10 mg/l solution of the herbicide safener fenchlorazole-ethyl and then grown in an environmental growth room with further root-applied watering treatments of 5 mg/l fenchlorazole ethyl applied as required. At 10 days after imbibing, the shoot tissue was harvested and extracted prior to precipitation of the protein with ammonium sulphate (80% saturation). The total protein extract was then applied in the presence of 1 M ammonium sulphate to a phenyl-Sepharose column. The bound GSTs were then recovered, firstly by reducing the ammonium sulphate concentration to 0 M to yield the polar GST fraction, which represented 61% of the recovered activity toward 1-chloro-2,4-dinitrobenzene (CDNB). The remaining 39% of the GST activity was then recovered by adding ethylene glycol (50% v/v) to the running buffer to yield the hydrophobic GST fraction. […] The component polypeptides in the active fractions were then analysed by silver staining after resolution by sodium dodecyl sulphate polyacrylamide gel electrophoresis (SDS-PAGE). It was concluded that in fenchlorazole-ethyl-treated wheat the polar GSTs were composed of 25 kDa and 26 kDa polypeptides, while the hydrophobic fraction contained 25 kDa, 26 kDa and 24 kDa polypeptides. Further analysis by reversed-phase HPLC confirmed the subunit compositions (FIG. 2). Based on the combined analyses by Q-sepharose, HPLC and SDS-PAGE these GST polypeptides were named as described in Table 1, which also contains details of how these subunits associate together to form the active dimers found in plants and the relative abundance of these subunits in extracts from unsafened and fenchlorazole-ethyl treated ([…]) plants.

[5] = recombinant wheat GST expressed in E. coli, affinity purified
[6] = recombinant wheat GST expressed in E. coli, affinity purified, ± standard error
[7] = isoenzymes purified from fenchlorazole-ethyl-treated wheat shoots
[8] = beta-galactosidase fusion in crude bacterial lysates, E. coli background subtracted, corrected for proportion of recombinant protein

B1: ICR: recombinant safener-inducible type III wheat GST clone, SEQ ID No. 15, amino acid SEQ ID No. 16 (protein)
chain: MAGDGELKLLGVWTSPFVIRVRVVLNLKSLPYEYVEESLGSKSALLLGSNPVHQSVPVLLHGGRPVNESQVIVQYIDEVWAGAGPSVLPADPYERATARFWAAYVDDKVGSAWTGMLFSCKTEEERAEAVSRAVAALETLEGAFAECSKGKAFFGGDAIGFVDVVLGGYLGWFGAIDKIIGRRLIDPARTPLLARWEERFRAADAAKGVVPDDADKMLEFLPTVLAWIAGKAK
modifications: Triticum aestivum L.
- GST activity toward CDNB (GST activity toward CDNB; [5]): 8139 nkat.mg^−1
- GST activity toward fluorodifen [1, 6]: 0.037 ± 0.002 nkat.mg^−1
- GST activity toward fenoxaprop-ethyl [2, 6]: 0.028 ± 0.001 nkat.mg^−1
- GST activity toward metolachlor [3, 6]: 0.000 ± 0.000 nkat.mg^−1

B2: TA 27: recombinant wheat GST from cloquintocet-mexyl-induced cDNA, SEQ ID No. 13, amino acid SEQ ID No. 14, expressed from pET 11a (protein)
chain: MEPMKVYGWAVSPWMARVLVSLEEAGADYELVPMSRNGGDHRRPEHLARNPFGEIPVLEYGGLTLYQSRAIARHILRKHKPGLLGAGSLEESAMVDVWVDVDAHHLEPVLKPIVWNCIINPFVGRDVDQGLVDESVEKLKKLLEVYEARLSSNKYLAGDFVSFADLTHFSFMRYFMATEHAVVLDAYPHVKAWWKALLARPSVKKVIAGMPPDFGFGSGRIP
modifications: Triticum aestivum L.
- GST activity toward CDNB (GST activity toward CDNB; [5]): 237 nkat.mg^−1
- Glutathione peroxidase activity toward cumene hydroperoxide ([4]; recombinant wheat GST, affinity purified, ± standard error (n = 3)): 3.6 ± 0.4 absorbance change at 340 nm.mg^−1
- GST activity toward fluorodifen [1, 6]: 0.034 ± 0.003 nkat.mg^−1
- GST activity toward fenoxaprop-ethyl [2, 6]: 0.036 ± 0.004 nkat.mg^−1
- GST activity toward metolachlor [3, 6]: 0.063 ± 0.006 nkat.mg^−1

B3: TaGST1-1: wheat GST isoenzyme purified from safener-treated shoots, homodimer of 25 kDa TaGST1 subunits (SEQ ID No. 2/SEQ ID No. 2) (protein)
chain 1: MAGEKGLVLLDFWVSPFGQRVRIALAEKGLPYEYAEEDLMAGKSDRLLRANPVHKKIPVLLHDGRAVNESLIILQYLEEAFPDAPALLPSDPYARAQARFWADYVDKKVYDCGSRLWKLKGEPQAQARAEMLDILKTLDGALGDKPFFGGDKFGFVDAAFAPFTAWFHSYERYGEFSLPEVAPKIAAWAKRCGERESVAKSLYSPDKVYDFIGLLKKKYGIE
chain 2: B3 chain 1
modifications: homodimer; Triticum aestivum L.
- GST activity toward CDNB (GST activity toward CDNB; [7]): 1,528 nkat.mg^−1
- % enhancement by safener (wheat shoots; fenchlorazole-ethyl treated (safened) versus unsafened wheat shoots): 30-50%
- Increase in expression following exposure to fenchlorazole-ethyl (wheat shoots; leaves of wheat seedlings): approximately 50%
- GST activity toward fluorodifen [1, 7]: 0.97 nkat.mg^−1
- GST activity toward fenoxaprop-ethyl [2, 7]: 0 nkat.mg^−1
- GST activity toward metolachlor [3, 7]: 0.11 nkat.mg^−1

B4: ICC/V/P: recombinant type III wheat GST; clones ICC, ICP and ICV with identical sequence, SEQ ID No. 17, amino acid SEQ ID No. 18 (protein)
chain: MAGGEELKLLGWWAPGVSPYVLRAQMALAVKGLSYDYLPEDRWSTSDLLIASNPVYKKVPVLIHNGRPVCESLLILEYLDDAVGLAGNGKPILPADPYSRAVARFWAAYVNDKLFPSCTGILKTTKQEERAGKMEETLSGLRHLEAVMAECSEGEAEAPFFGGDAIGFLDIALGCYLPWFEAAGRLAGLGPIIDPARTPKLAAWAERFSVAEPIKALLPGVDKLEEYITTALYPKWNIAVTGN
modifications: Triticum aestivum L.
- GST activity toward CDNB (GST activity toward CDNB; [8]): 30 nkat.mg^−1
- Glutathione peroxidase activity toward cumene hydroperoxide [4, 8]: 0.84 ± 0.04 absorbance change at 340 nm.mg^−1
- GST activity toward fluorodifen [1, 8]: 0.000 ± 0.000 nkat.mg^−1
- GST activity toward fenoxaprop-ethyl [2, 8]: 0.074 ± 0.008 nkat.mg^−1
- GST activity toward metolachlor [3, 8]: 0.000 ± 0.000 nkat.mg^−1
